Experimental findings from patent publication US20130323237A1 (Novartis, published 2013) are described below.

The experiment addresses T1, recombinant human TSLP (R&D Systems) (human, UniProt Q969D9 29-159).
T1 construct: also called hTSLP; human thymic stromal lymphopoietin
Kind of experiment: SPR (Biacore), biotinylated recombinant human TSLP on SA-chip, Fab as analyte. In general terms: SPR reads the build-up and loss of mass on a sensor chip optically.

Method: A respective amount of biotinylated human serum albumin (HSA) was immobilized on the reference flow cell. […] The Fabs were applied in concentration series of 16-500 nM at a flow rate of 20 μl/min. Association phase was set to 60 s and dissociation phase to 120 s.

B1: MOR04832 Fab (Fab, V domains shown)
VH: QVQLVQSGAEVKKPGSSVKVSCKASGGTFSSYAISWVRQAPGQGLEWMGNIYPIFGYANYAQKFQGRVTITADESTSTAYMELSSLRSEDTAVYYCARYGQYGQHFSHGGMDVWGQGTLVTVSS
VL: DIQMTQSPSSLSASVGDRVTITCRASQDISISLTWYQQKPGKAPKLLIYGAFSLQSGVPSRFSGSGSGTDFTLTISSLQPEDFATYYCQQYYGTSATFGQGTKVEIKR
notes: carries two C-terminal tags (FLAG and 6xHis)
In the case of B1, the binding result is reported as “binds”.

B2: MOR04497 Fab (Fab, V domains shown)
VH: QVQLVESGGGLVQPGGSLRLSCAASGFTFSNHALSWVRQAPGKGLEWVSGIQYDGSNTGYADSVKGRFTISRDNSKNTLYLQMNSLRAEDTAVYYCARYYGYSYMDYWGQGTLVTVSS
VL: DIELTQPPSVSVAPGQTARISCSGDNLGSKYVHWYQQKPGQAPVLVIYADNNRPSGIPERFSGSNSGNTATLTISGTQAEDEADYYCQSYDHMLQVFGGGTKLTVLG
notes: as for B1
For the molecule B2, the binding result is “binds”.

B3: MOR04493 Fab (Fab, V domains shown)
VH: QVQLVQSGAEVKKPGSSVKVSCKASGGTFSSYAISWVRQAPGQGLEWMGGIIPDFGWANYAQKFQGRVTITADESTSTAYMELSSLRSEDTAVYYCARSGMFYSILFDYWGQGTLVTVSS
VL: DIQMTQSPSSLSASVGDRVTITCRASQDIYNYLNWYQQKPGKAPKLLIYGASSLQSGVPSRFSGSGSGTDFTLTISSLQPEDFAVYYCQQQNDYPLTFGQGTKVEIKR
notes: as for B1
In the case of B3, the binding result is given as “binds”.

B4: MOR04496 Fab (Fab, V domains shown)
VH: QVQLVESGGGLVQPGGSLRLSCAASGFTFSSYAISWVRQAPGKGLEWVSSISYSGSSTYYADSVKGRFTISRDNSKNTLYLQMNSLRAEDTAVYYCARMEYWYHLLYMDYWGQGTLVTVSS
VL: DIVLTQSPATLSLSPGERATLSCRASQSIGDNYLAWYQQKPGQAPRLLIYDANNRATGVPARFSGSGSGTDFTLTISSLEPEDFATYYCQQYDDHPLTFGQGTKVEIKR
notes: as for B1
Consider B4, for which the binding result is “binds”.

B5: MOR04494 Fab (Fab, V domains shown)
VH: QVQLVESGGGLVQPGGSLRLSCAASGFTFSSYYMSWVRQAPGKGLEWVSNISYDSSDTYYADSVKGRFTISRDNSKNTLYLQMNSLRAEDTAVYYCARQQYFDHIDIWGQGTLVTVSS
VL: DIELTQPPSVSVAPGQTARISCGGDSLGGKYVYWYQQKPGQAPVLVIYGDSKRPSGIPERFSGSNSGNTATLTISGTQAEDEADYYCQSYTNALSTVFGGGTKLTVLG
notes: as for B1
Turning to B5, the binding result is on record as “binds”.
